The text below walks through data of patent US5360895A, “Derivatized gold clusters and antibody-gold cluster conjugates” (priority 1992, dated 1994).

Read-outs that look alike come from different tables or passages of the source.

Data set [1] is described as follows: Toxicity of radioactive gold clusters (no antibody) in healthy mice. As to conditions: tail vein; 7.8, 12.6 or 24 μg gold metal; 2 or 24 hours.
Method: The folowing in vivo tests in mice assess both biodistribution with time and toxicity.
Various doses of gold cluster were injected into the tail vein of healthy mice: cluster containing 7.8 μg of gold metal into one group, 12.6 μg into another and 24 μg into the third. Each group consisted of 6 animals, for a total of 18 mice. Three mice from each group were sacrificed after 2 hours and the remaining 3 were terminated after 24 hours in order to determine the biodistribution in different organs as a function of time.
Data set [2] concerns human colon carcinoma cells (LS180).
Method: (§3) The 17-1A Fab' fragment-(radioactive gold)-undecagold cluster conjugate was incubated in vitro with tumor cells (LS180- a cell culture of human colon carcinoma) and non tumor cells (WM164 - a cell culture of melanoma as control) and the radioactivity of the gold was used to assay binding.
(§4) bound to cells after incubation and washing.
(§5) entry is an average (+ s.d.) of 2 samples.
A short description of data set [3]: Biodistribution of radioactive gold clusters (no antibody) in healthy mice. The class given is in vivo. The procedure:
Typically the blood had 2.8%, the spleen 0.4%, the stomach 0.4%, kidney 5.1%, bone 2.5%, gut and feces 3.3%, liver 19.3% and, carcass 13.7% of the injected amount after 24 hours. These numbers are % counts per organ normalized to 25 gm mice.

Assay in data set [4]: as above
The class given is in vivo. As to conditions: after 2 hours, tail vein.

The subject of data set [5] is melanoma cells (WM164).
Method: as §3, §4, §5
Data set [6] in a line: Thermal stability of gold clusters. The class given is physicochemical. As to conditions: 100° C.
Data set [7] can be described thus: Chemical stability of derivatized Au13 cluster.
Data set [8] is described as follows: Stability of photocrosslinked Au13 cluster to KCN (optical density at 346 and 420 nm). The class given is physicochemical. The conditions noted are these: 100 μl of cluster (1 μMolar) with 20 μl of 0.1M KCN. As to the method: Two nmol of the Au13 [P(PhCONH(CH2)3 NH2)3 ]10 cluster in 0.1M sodium citrate buffer, pH 5, was incubated with the crosslinking reagent, N-hydroxysuccinimidyl-4-azidosalicylic acid (NHS-ASA). A range of amounts was tried, from 1 to 100-fold molar excess over the number of amines in the cluster. Incubation was carried out in the dark for 30 min. The solution was exposed to UV light (Ultraviolet Products Inc., Lamp R-52) at 4 cm for 5 min. The product was purified on a 0.66×50 cm column of GH-25 (Amicon) using the buffer 0.36M triethylammonium bicarbonate/70% methanol in water. Alternately, these last two steps were reversed so that unreacted crosslinker was removed on the column before UV treatment.
The crosslinked cluster stability was quantitated by observing the decrease in optical density at 346 and 420 nm in a spectrophotometer at regular intervals after adding KCN or glutathione. One hundred μl of cluster (1 μMolar) was mixed with 20 μl of 0.1M KCN. […] Noncrosslinked cluster was completely destroyed after 2 min under these conditions.
A longer photocrosslinking reagent was also used, sulfosuccinimidyl 6-(4'-azido-2'-nitrophenylamino) hexanoate (sulfo-SANPAH). The procedure was identical to that described above. For 100-fold initial excess of crosslinker, the resulting cluster product was 100% stable to KCN indefinitely, whereas uncrosslinked cluster was completely destroyed in 2 min.

For a further data set, the system named is human colon carcinoma. As to the kind of experiment: In vivo biodistribution of radiogold cluster 17-1A conjugates in nude mice bearing human tumors. As to conditions: 24 hr after injection. The procedure: Nude mice bearing human colon carcinoma or melanoma tumors were injected with radioactive gold clusters conjugated to anti-tumor antibodies. Two antibodies were gold labeled, one (17-1A) against the human colon carcinoma and another non-relevant antibody, H2 4B5 anti-influenza. The non-relevant tumor (melanoma) and non-relevant gold conjugated antibody (H2 4B5) served as controls. A total of 53 mice were used. In order to assess the efficacy of using gold labeled Fab' versus whole IgG, both types of antibody were labeled and tested. In addition, two crosslinking arms between the gold cluster and antibody were used, one, as described in the preparation example, was N-methoxycarbonyl maleimide (NMCM), whereas the other was n-maleimidobenzoyl-N-hydroxysuccinimide ester (MBS), This was to test if a different covalent crosslinker between the gold cluster and antibody or antibody fragment yielded conjugates with different stabilities or body distributions in vivo.
In vivo biodistribution of radiogold cluster 17-1A conjugates. Data,
after injection is expressed in % of injected dose per gram of tissue.
Tumor to normal tissue ratios are given in parentheses. Three or four
sample were averaged; normalized to 25 g animals.

Another data set deals with control melanoma. The data set can be described thus: In vitro test of Fab'-Au11 with control melanoma, radiolabeled second antibody. The class given is cell-based. The conditions noted are these: preliminary in vitro testing, 17-1A. As to the method:
(§1) The antibody used is "17-1A", commercially available from Centocor, Inc. These antibody-cluster conjugates were also assayed by electron microscopy, high pressure liquid chromatography, and spectroscopy and appeared to follow the normal course of results indicated in Examples 4 and 5. The number of gold clusters bound to each Fab' in this example was 0.7-1.0.
(§2) The in vitro test involved incubating the Fab'-Au11 with either colorectal carcinoma cells or a control melanoma for one hour, centrifugation to isolate the cell-bound antibody, and assay of the bound antibody with a second antibody [to F(ab')2 ] which was itself radiolabeled with iodine. A titer curve was produced.

Data set [9] deals with melanoma cells (WM164). The data set can be described thus: In vitro cell binding of 17-1A-Au11 conjugates, control melanoma (radioactivity of gold). As to conditions: percent of applied radioactive gold bound after incubation and washing; average ± s.d. of 2 samples.
Method: as §3, §4, §5
Data set [10] has as its system colorectal carcinoma cells. The data set can be described thus: In vitro test of Fab'-Au11 with colorectal carcinoma cells, radiolabeled second antibody. The class given is cell-based, human. As to the method: as §1, §2
Data set [11] has as its system human colon carcinoma cells (LS180). The data set can be described thus: In vitro cell binding of 17-1A-Au11 conjugates, human colon carcinoma (radioactivity of gold).
Method: as §3, §4, §5
[12] abbreviates: 24 hours, % counts per organ normalized to 25 gm mice.

Take “Au11 [P(C6 H4 CONHR)3 ]7^3+ where 20 R groups are CH3 and one is (CH2)3 N(CO2)(CH2)”: the “death or unusual reaction during or following injection” value in data set [1] was “no mice died or reacted unusually”. In data set [2], the “% bound to tumor cells (human colon carcinoma)” value stood at 0.54 ± 0.04%. Also, in [3] (setting [12]), the “blood, % of the injected amount” value is 2.8%; the “bone, % of the injected amount” value is reported as 2.5%; the “carcass, % of the injected amount” value came to 13.7%; the “gut and feces, % of the injected amount” value was 3.3%. In addition, in [3] (setting [12]), the “kidney, % of the injected amount” value is recorded as 5.1%; the “liver, % of the injected amount” value came out at 19.3%; the “spleen, % of the injected amount” value was determined as 0.4%; the “stomach, % of the injected amount” value was found to be 0.4%. For the same molecule, the clusters excreted in [3] (after 24 hours, tail vein) stood at 56%. For the same molecule, the clusters excreted in data set [4] came out at 44%. For the same molecule, the “% bound to control cells (melanoma)” value in the data set on melanoma cells (WM164) [5] is listed as 0.51 ± 0.06%. For the same molecule, in data set [6], the “stability at 100° C.” value is listed as “perfectly stable”.
Take “Au13 [P(PhCONH(CH2)3 NH2)3 ]10 [derivatized Au13 cluster]”: the “stability upon addition of 1M KCN” value in data set [7] is “degraded”. In data set [8], the “time to complete destruction in KCN” value was 2 min.

B1: Fab'-Au11: 17-1A monoclonal antibody Fab' fragment covalently coupled to the undecagold cluster (radioactive gold in Tables 1 and 2) (conjugate, chains of the INN, looked up)
VH: QVQLQQSGAELVRPGTSVKVSCKASGYAFTNYLIEWVKQRPGQGLEWIGVINPGSGGTNYNEKFKGKATLTADKSSSTAYMQLSSLTSDDSAVYFCARDGPWFAYWGQGTLVTVSA
VL: NIVMTQSPKSMSMSVGERVTLTCKASENVVTYVSWYQQKPEQSPKLLIYGASNRYTGVPDRFTGSGSATDFTLTISSVQAEDLADYHCGQGYSYPYTFGGGTKLEIK
modifications: Fab' undecagold cluster label
On to B1, for which, in the data set with human colon carcinoma, the “Tumor to normal tissue ratio, blood” value was determined as 1.9; the “Tumor to normal tissue ratio, bone” value was 6.6; the “Tumor to normal tissue ratio, gut” value is reported as 5; the “Tumor to normal tissue ratio, heart” value was 3.7. In addition, in the data set with human colon carcinoma, the “Tumor to normal tissue ratio, kidneys” value turned out to be 0.06; the “Tumor to normal tissue ratio, liver” value is 1.0; the “Tumor to normal tissue ratio, lung” value came out at 2.5; the “Tumor to normal tissue ratio, muscle” value turned out to be 13.2. For the same molecule, in the data set with human colon carcinoma, the “Tumor to normal tissue ratio, spleen” value was determined as 2.3 and the “Tumor to normal tissue ratio, stomach” value is listed as 11.2. In addition, in the data set with human colon carcinoma (normalized to 25 g animals), the “blood, % of injected dose per gram of tissue” value is on record as 3.4 ± 0.3 % of injected dose per gram of tissue; the “bone, % of injected dose per gram of tissue” value is 0.97 ± 0.02 % of injected dose per gram of tissue; the “gut, % of injected dose per gram of tissue” value is reported as 1.3 ± 0.1 % of injected dose per gram of tissue; the “heart, % of injected dose per gram of tissue” value is reported as 1.7 ± 0.1 % of injected dose per gram of tissue. In addition, in the data set on human colon carcinoma (normalized to 25 g animals), the “kidneys, % of injected dose per gram of tissue” value was 103.0 ± 32 % of injected dose per gram of tissue; the “liver, % of injected dose per gram of tissue” value is recorded as 5.6 ± 0.5 % of injected dose per gram of tissue; the “lung, % of injected dose per gram of tissue” value is 2.5 ± 0.04 % of injected dose per gram of tissue; the “muscle, % of injected dose per gram of tissue” value is given as 0.48 ± 0.06 % of injected dose per gram of tissue. Also, in the data set on human colon carcinoma (normalized to 25 g animals), the “spleen, % of injected dose per gram of tissue” value is given as 2.8 ± 0.4 % of injected dose per gram of tissue; the “stomach, % of injected dose per gram of tissue” value is on record as 0.57 ± 0.14 % of injected dose per gram of tissue; the “tumor, % of injected dose per gram of tissue” value is 6.4 ± 1.1 % of injected dose per gram of tissue. Also, the “binding to a control melanoma” value in the data set on control melanoma was “does not bind to a control melanoma”. Moreover, the “% bound to control cells (melanoma)” value in the data set on melanoma cells (WM164) [9] came to 1.92 ± 0.17%. The “antibody activity and specificity” value in [10] (one hour incubation, titer curve) was “antibody activity and specificity were preserved”. In addition, the “specificity for the tumor” value in data set [10] (preliminary in vitro testing, 17-1A) is recorded as “retains its specificity for the tumor”. Also, the “localization of radioactive gold on tumor cells” value in data set [11] (LS180 cells, in words) is given as “localized completely on the tumor cells”. Further, the “% bound to tumor cells (human colon carcinoma)” value in data set [11] (percent of applied radioactive gold bound after incubation and washing, average ± s.d. of 2 samples) worked out at 7.80 ± 0.52%.
